Results as given in article PMC2708785 (Biochemistry, 2009).

Columns and labels:
AUC = target: the molecule itself; experiment: AUC
crystal structure = target: the molecule itself; experiment: crystal structure

B1: 2-methyl-3-hydroxypyridine-5-carboxylic acid oxygenase (MHPCO) from Mesorhizobium loti MAFF303099, with N-terminal 6xHis tag (enzyme, UniProt Q988D3 1-379, looked up)
chain: MANVNKTPGKTRRAEVAGGGFAGLTAAIALKQNGWDVRLHEKSSELRAFGAGIYLWHNGLRVLEGLGALDDVLQGSHTPPTYETWMHNKSVSKETFNGLPWRIMTRSHLHDALVNRARALGVDISVNSEAVAADPVGRLTLQTGEVLEADLIVGADGVGSKVRDSIGFKQDRWVSKDGLIRLIVPRMKKELGHGEWDNTIDMWNFWPRVQRILYSPCNENELYLGLMAPAADPRGSSVPIDLEVWVEMFPFLEPCLIEAAKLKTARYDKYETTKLDSWTRGKVALVGDAAHAMCPALAQGAGCAMVNAFSLSQDLEEGSSVEDALVAWETRIRPITDRCQALSGDYAANRSLSKGNMFTPAALEAARYDPLRRVYSWPQ
modifications: selenomethionine in place of methionine (SeMet MHPCO)
stoichiometry N (AUC): 4 | stoichiometry N (crystal structure): 2
